# From patent US20210388087A1 (Chugai, published 2021)
# Target: T1, CD3 epsilon homodimer protein (UniProt P07766 23-126)
# T1 construct: immobilized on Sensor chip CM4 by amine coupling; also called CD3 (CD3 epsilon)
# Experiment: SPR (Biacore T200), CD3 epsilon homodimer on CM4 chip, one-arm antibody as analyte, 25 C;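 also: homodimer attached to the sensor surface via amine coupling, HBS-EP+ used as running buffer during binding runs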
# Method: An appropriate amount of CD3 epsilon homodimer protein was immobilized onto Sensor chip CM4 (GE Healthcare Japan Corp.) by the amine coupling method. Then, the antibody having an appropriate concentration was injected thereto as an analyte and allowed to interact with the CD3 epsilon homodimer protein on the sensor chip. Then, the sensor chip was regenerated by the injection of 10 mmol/L glycine-HCl (pH 1.5). The assay was conducted at 25 degrees C., and HBS-EP+(GE Healthcare Japan Corp.) was used as a running buffer. […] Each parameter was calculated using Biacore T200 Evaluation Software (GE Healthcare Japan Corp.).
# T1 sequence (P07766 23-126): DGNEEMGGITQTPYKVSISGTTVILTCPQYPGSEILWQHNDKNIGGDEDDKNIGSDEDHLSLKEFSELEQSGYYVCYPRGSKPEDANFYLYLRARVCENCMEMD
row,Binder,ratio of amounts bound (altered form / CE115HA000)
1,"CE115HA000 K52E one-arm antibody (antibody, human IgG1, kappa, L234A L235A, N297A, name in Kabat numbering) heavy: QVQLVESGGGVVQPGRSLRLSCAASGFTFSNAWMHWVRQAPGKGLEWVAQIEAKSNNYATYYAESVKGRFTISRDDSKNSLYLQMNSLKTEDTAVYYCRYVHYGAYYGVDAWGQGTTVTVSSASTKGPSVFPLAPSSKSTSGGTAALGCLVKDYFPEPVTVSWNSGALTSGVHTFPAVLQSSGLYSLSSVVTVPSSSLGTQTYICNVNHKPSNTKVDKKVEPKSCDKTHTCPPCPAPEAAGGPSVFLFPPKPKDTLMISRTPEVTCVVVDVSHEDPEVKFNWYVDGVEVHNAKTKPREEQYASTYRVVSVLTVLHQDWLNGKEYKCKVSNKALPAPIEKTISKAKGQPREPQVYTLPPSRCELTKNQVSLSCAVKGFYPSDIAVEWESNGQPENNYKTTPPVLDSDGSFFLVSKLTVDKSRWQQGNVFSCSVMHEALHNHYTQKSLSLSPDYKDDDDK EPKSSDKTHTCPPCPAPELLGGPSVFLFPPKPKDTLMISRTPEVTCVVVDVSHEDPEVKFNWYVDGVEVHNAKTKPREEQYNSTYRVVSVLTVLHQDWLNGKEYKCKVSNKALPAPIEKTISKAKGQPREPQVCTLPPSRDELTKNQVSLWCLVKGFYPSDIAVEWESNGQPENNYKTTPPVLDSDGSFFLYSKLTVDKSRWQQGNVFSCSVMHEALHNRYTQKSLSLSP light: DIVMTQSPLSLPVTPGEPASISCRSSQSLVHSNRNTYLHWYQQKPGQAPRLLIYKVSNRFSGVPDRFSGSGSGTDFTLKISRVEAEDVGVYYCGQGTQVPYTFGQGTKLEIKRTVAAPSVFIFPPSDEQLKSGTASVVCLLNNFYPREAKVQWKVDNALQSGNSQESVTEQDSKDSTYSLSSTLTLSKADYEKHKVYACEVTHQGLSSPVTKSFNRGEC",0.26
2,"CE115HA000 K52R one-arm antibody (antibody, human IgG1, kappa, L234A L235A, N297A, name in Kabat numbering) heavy: QVQLVESGGGVVQPGRSLRLSCAASGFTFSNAWMHWVRQAPGKGLEWVAQIRAKSNNYATYYAESVKGRFTISRDDSKNSLYLQMNSLKTEDTAVYYCRYVHYGAYYGVDAWGQGTTVTVSSASTKGPSVFPLAPSSKSTSGGTAALGCLVKDYFPEPVTVSWNSGALTSGVHTFPAVLQSSGLYSLSSVVTVPSSSLGTQTYICNVNHKPSNTKVDKKVEPKSCDKTHTCPPCPAPEAAGGPSVFLFPPKPKDTLMISRTPEVTCVVVDVSHEDPEVKFNWYVDGVEVHNAKTKPREEQYASTYRVVSVLTVLHQDWLNGKEYKCKVSNKALPAPIEKTISKAKGQPREPQVYTLPPSRCELTKNQVSLSCAVKGFYPSDIAVEWESNGQPENNYKTTPPVLDSDGSFFLVSKLTVDKSRWQQGNVFSCSVMHEALHNHYTQKSLSLSPDYKDDDDK EPKSSDKTHTCPPCPAPELLGGPSVFLFPPKPKDTLMISRTPEVTCVVVDVSHEDPEVKFNWYVDGVEVHNAKTKPREEQYNSTYRVVSVLTVLHQDWLNGKEYKCKVSNKALPAPIEKTISKAKGQPREPQVCTLPPSRDELTKNQVSLWCLVKGFYPSDIAVEWESNGQPENNYKTTPPVLDSDGSFFLYSKLTVDKSRWQQGNVFSCSVMHEALHNRYTQKSLSLSP light: DIVMTQSPLSLPVTPGEPASISCRSSQSLVHSNRNTYLHWYQQKPGQAPRLLIYKVSNRFSGVPDRFSGSGSGTDFTLKISRVEAEDVGVYYCGQGTQVPYTFGQGTKLEIKRTVAAPSVFIFPPSDEQLKSGTASVVCLLNNFYPREAKVQWKVDNALQSGNSQESVTEQDSKDSTYSLSSTLTLSKADYEKHKVYACEVTHQGLSSPVTKSFNRGEC",0.91
3,"CE115HA000 K52F one-arm antibody (antibody, human IgG1, kappa, L234A L235A, N297A, name in Kabat numbering) heavy: QVQLVESGGGVVQPGRSLRLSCAASGFTFSNAWMHWVRQAPGKGLEWVAQIFAKSNNYATYYAESVKGRFTISRDDSKNSLYLQMNSLKTEDTAVYYCRYVHYGAYYGVDAWGQGTTVTVSSASTKGPSVFPLAPSSKSTSGGTAALGCLVKDYFPEPVTVSWNSGALTSGVHTFPAVLQSSGLYSLSSVVTVPSSSLGTQTYICNVNHKPSNTKVDKKVEPKSCDKTHTCPPCPAPEAAGGPSVFLFPPKPKDTLMISRTPEVTCVVVDVSHEDPEVKFNWYVDGVEVHNAKTKPREEQYASTYRVVSVLTVLHQDWLNGKEYKCKVSNKALPAPIEKTISKAKGQPREPQVYTLPPSRCELTKNQVSLSCAVKGFYPSDIAVEWESNGQPENNYKTTPPVLDSDGSFFLVSKLTVDKSRWQQGNVFSCSVMHEALHNHYTQKSLSLSPDYKDDDDK EPKSSDKTHTCPPCPAPELLGGPSVFLFPPKPKDTLMISRTPEVTCVVVDVSHEDPEVKFNWYVDGVEVHNAKTKPREEQYNSTYRVVSVLTVLHQDWLNGKEYKCKVSNKALPAPIEKTISKAKGQPREPQVCTLPPSRDELTKNQVSLWCLVKGFYPSDIAVEWESNGQPENNYKTTPPVLDSDGSFFLYSKLTVDKSRWQQGNVFSCSVMHEALHNRYTQKSLSLSP light: DIVMTQSPLSLPVTPGEPASISCRSSQSLVHSNRNTYLHWYQQKPGQAPRLLIYKVSNRFSGVPDRFSGSGSGTDFTLKISRVEAEDVGVYYCGQGTQVPYTFGQGTKLEIKRTVAAPSVFIFPPSDEQLKSGTASVVCLLNNFYPREAKVQWKVDNALQSGNSQESVTEQDSKDSTYSLSSTLTLSKADYEKHKVYACEVTHQGLSSPVTKSFNRGEC",0.17
4,"CE115HA000 K52I one-arm antibody (antibody, human IgG1, kappa, L234A L235A, N297A, name in Kabat numbering) heavy: QVQLVESGGGVVQPGRSLRLSCAASGFTFSNAWMHWVRQAPGKGLEWVAQIIAKSNNYATYYAESVKGRFTISRDDSKNSLYLQMNSLKTEDTAVYYCRYVHYGAYYGVDAWGQGTTVTVSSASTKGPSVFPLAPSSKSTSGGTAALGCLVKDYFPEPVTVSWNSGALTSGVHTFPAVLQSSGLYSLSSVVTVPSSSLGTQTYICNVNHKPSNTKVDKKVEPKSCDKTHTCPPCPAPEAAGGPSVFLFPPKPKDTLMISRTPEVTCVVVDVSHEDPEVKFNWYVDGVEVHNAKTKPREEQYASTYRVVSVLTVLHQDWLNGKEYKCKVSNKALPAPIEKTISKAKGQPREPQVYTLPPSRCELTKNQVSLSCAVKGFYPSDIAVEWESNGQPENNYKTTPPVLDSDGSFFLVSKLTVDKSRWQQGNVFSCSVMHEALHNHYTQKSLSLSPDYKDDDDK EPKSSDKTHTCPPCPAPELLGGPSVFLFPPKPKDTLMISRTPEVTCVVVDVSHEDPEVKFNWYVDGVEVHNAKTKPREEQYNSTYRVVSVLTVLHQDWLNGKEYKCKVSNKALPAPIEKTISKAKGQPREPQVCTLPPSRDELTKNQVSLWCLVKGFYPSDIAVEWESNGQPENNYKTTPPVLDSDGSFFLYSKLTVDKSRWQQGNVFSCSVMHEALHNRYTQKSLSLSP light: DIVMTQSPLSLPVTPGEPASISCRSSQSLVHSNRNTYLHWYQQKPGQAPRLLIYKVSNRFSGVPDRFSGSGSGTDFTLKISRVEAEDVGVYYCGQGTQVPYTFGQGTKLEIKRTVAAPSVFIFPPSDEQLKSGTASVVCLLNNFYPREAKVQWKVDNALQSGNSQESVTEQDSKDSTYSLSSTLTLSKADYEKHKVYACEVTHQGLSSPVTKSFNRGEC",0.33
5,"CE115HA000 K52H one-arm antibody (antibody, human IgG1, kappa, L234A L235A, N297A, name in Kabat numbering) heavy: QVQLVESGGGVVQPGRSLRLSCAASGFTFSNAWMHWVRQAPGKGLEWVAQIHAKSNNYATYYAESVKGRFTISRDDSKNSLYLQMNSLKTEDTAVYYCRYVHYGAYYGVDAWGQGTTVTVSSASTKGPSVFPLAPSSKSTSGGTAALGCLVKDYFPEPVTVSWNSGALTSGVHTFPAVLQSSGLYSLSSVVTVPSSSLGTQTYICNVNHKPSNTKVDKKVEPKSCDKTHTCPPCPAPEAAGGPSVFLFPPKPKDTLMISRTPEVTCVVVDVSHEDPEVKFNWYVDGVEVHNAKTKPREEQYASTYRVVSVLTVLHQDWLNGKEYKCKVSNKALPAPIEKTISKAKGQPREPQVYTLPPSRCELTKNQVSLSCAVKGFYPSDIAVEWESNGQPENNYKTTPPVLDSDGSFFLVSKLTVDKSRWQQGNVFSCSVMHEALHNHYTQKSLSLSPDYKDDDDK EPKSSDKTHTCPPCPAPELLGGPSVFLFPPKPKDTLMISRTPEVTCVVVDVSHEDPEVKFNWYVDGVEVHNAKTKPREEQYNSTYRVVSVLTVLHQDWLNGKEYKCKVSNKALPAPIEKTISKAKGQPREPQVCTLPPSRDELTKNQVSLWCLVKGFYPSDIAVEWESNGQPENNYKTTPPVLDSDGSFFLYSKLTVDKSRWQQGNVFSCSVMHEALHNRYTQKSLSLSP light: DIVMTQSPLSLPVTPGEPASISCRSSQSLVHSNRNTYLHWYQQKPGQAPRLLIYKVSNRFSGVPDRFSGSGSGTDFTLKISRVEAEDVGVYYCGQGTQVPYTFGQGTKLEIKRTVAAPSVFIFPPSDEQLKSGTASVVCLLNNFYPREAKVQWKVDNALQSGNSQESVTEQDSKDSTYSLSSTLTLSKADYEKHKVYACEVTHQGLSSPVTKSFNRGEC",0.22
6,"CE115HA000 K52N one-arm antibody (antibody, human IgG1, kappa, L234A L235A, N297A, name in Kabat numbering) heavy: QVQLVESGGGVVQPGRSLRLSCAASGFTFSNAWMHWVRQAPGKGLEWVAQINAKSNNYATYYAESVKGRFTISRDDSKNSLYLQMNSLKTEDTAVYYCRYVHYGAYYGVDAWGQGTTVTVSSASTKGPSVFPLAPSSKSTSGGTAALGCLVKDYFPEPVTVSWNSGALTSGVHTFPAVLQSSGLYSLSSVVTVPSSSLGTQTYICNVNHKPSNTKVDKKVEPKSCDKTHTCPPCPAPEAAGGPSVFLFPPKPKDTLMISRTPEVTCVVVDVSHEDPEVKFNWYVDGVEVHNAKTKPREEQYASTYRVVSVLTVLHQDWLNGKEYKCKVSNKALPAPIEKTISKAKGQPREPQVYTLPPSRCELTKNQVSLSCAVKGFYPSDIAVEWESNGQPENNYKTTPPVLDSDGSFFLVSKLTVDKSRWQQGNVFSCSVMHEALHNHYTQKSLSLSPDYKDDDDK EPKSSDKTHTCPPCPAPELLGGPSVFLFPPKPKDTLMISRTPEVTCVVVDVSHEDPEVKFNWYVDGVEVHNAKTKPREEQYNSTYRVVSVLTVLHQDWLNGKEYKCKVSNKALPAPIEKTISKAKGQPREPQVCTLPPSRDELTKNQVSLWCLVKGFYPSDIAVEWESNGQPENNYKTTPPVLDSDGSFFLYSKLTVDKSRWQQGNVFSCSVMHEALHNRYTQKSLSLSP light: DIVMTQSPLSLPVTPGEPASISCRSSQSLVHSNRNTYLHWYQQKPGQAPRLLIYKVSNRFSGVPDRFSGSGSGTDFTLKISRVEAEDVGVYYCGQGTQVPYTFGQGTKLEIKRTVAAPSVFIFPPSDEQLKSGTASVVCLLNNFYPREAKVQWKVDNALQSGNSQESVTEQDSKDSTYSLSSTLTLSKADYEKHKVYACEVTHQGLSSPVTKSFNRGEC",0.34
